Source: PMC6586363

Biological target: recombinant human PKM2, wild type (human) (UniProt P14618)
Test: native gel or EMSA; blue native gel electrophoresis of recombinant PKM2 (WT or mutant) or PKM1, alone or with FBP and/or scFv 5; resolves dimer and tetramer forms

Chain of recombinant human PKM2, wild type, P14618 1-531 (enzyme; other documents disagree on this pair) (P14618 whole entry): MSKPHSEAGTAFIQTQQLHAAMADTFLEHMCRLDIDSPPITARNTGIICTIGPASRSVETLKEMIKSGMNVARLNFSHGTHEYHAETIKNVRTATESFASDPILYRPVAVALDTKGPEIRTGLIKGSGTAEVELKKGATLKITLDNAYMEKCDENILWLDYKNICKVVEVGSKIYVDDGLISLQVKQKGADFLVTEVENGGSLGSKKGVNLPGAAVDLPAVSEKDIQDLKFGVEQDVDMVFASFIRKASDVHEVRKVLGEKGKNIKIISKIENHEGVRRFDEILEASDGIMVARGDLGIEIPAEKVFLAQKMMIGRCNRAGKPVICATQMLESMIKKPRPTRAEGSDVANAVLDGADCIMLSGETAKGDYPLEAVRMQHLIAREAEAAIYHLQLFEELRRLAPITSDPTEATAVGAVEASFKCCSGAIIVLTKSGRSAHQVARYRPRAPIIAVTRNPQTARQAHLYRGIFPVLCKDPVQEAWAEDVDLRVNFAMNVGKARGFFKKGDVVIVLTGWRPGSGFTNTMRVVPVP

Substance: recombinant human PKM2, wild type, P14618 1-531 (enzyme; other documents disagree on this pair)
- stoichiometry N: 2
